Test results as given in patent US20030039970, “Method for prognosing cancer and the proteins involved” (published 2003).
Where a chain is given by its changes, count along the chain named.

Legend:
[1] = target: T1, TRAITS (TID-1/U19) (Rattus norvegicus, UniProt Q811X5 SEQ:1-262); assay: EMSA; complex competed by 5x, 25x, 125x cold T-wt; poly[dI-dC] present; settings: tags: GST fusion (pGEX-2T, E. coli); label: 32P 5' end
From the text: (§1) The binding of GST-TRAITS fusion protein to labeled T-box containing DNA forms a DNA-protein complex (C), which can be competed in the presence of indicated fold (5×, 25×, or 125×) molar excess of cold T-wt but not by cold T-mut (ACTgTA). A non-specific complex (*) in the presence of GST-TRAITS was also formed in the presence of GST only. Labeled free DNA (F) was also indicated. […] NIH3T3 cells were transiently transfected with empty vector (PM) or vectors expressing the full-length rat TRAITS (residues 1-262 of SEQ ID NO: 14), its N-terminal (residues 1-113 of SEQ ID NO: 14), or its C-terminal (residues 114-262 of SEQ ID NO: 14) plus pG5CAT reporter and pSV-β-gal for normalization. Assays were performed after 24 hours of transfection. The fold activation of CAT reporter is shown with S.E.M. Assays were performed in triplicate in two separate experiments.
(§2) T-wt: (5′-[…] GAAGCTTACGTCGCG-3′ SEQ ID NO: 33) and T-mut: (5′-[…] CGAAGCTTACGTCGCG-3′ SEQ ID NO: 34) were synthesized and amplified by PCR. T4 polynucleotide kinase (Promega) was used to label T-wt & T-mut by [γ-³²P] ATP (NEN). Recombinant GST-TRAITS fusion protein was incubated with […] poly [dI-dC] and EMSA was performed according to the protocol provided by Gel Shift Assay System (Promega).

[2] = target: T1, TRAITS (TID-1/U19); assay: competition; cold T-mut up to 125x molar excess does not compete for labeled T-wt complex; legend prints ACTgTA but sequence has ACGTTA; settings: tags: GST fusion (pGEX-2T, E. coli)
From the text: as §1, §2

T1 sequence (Q811X5 whole entry, the tested form may be a part): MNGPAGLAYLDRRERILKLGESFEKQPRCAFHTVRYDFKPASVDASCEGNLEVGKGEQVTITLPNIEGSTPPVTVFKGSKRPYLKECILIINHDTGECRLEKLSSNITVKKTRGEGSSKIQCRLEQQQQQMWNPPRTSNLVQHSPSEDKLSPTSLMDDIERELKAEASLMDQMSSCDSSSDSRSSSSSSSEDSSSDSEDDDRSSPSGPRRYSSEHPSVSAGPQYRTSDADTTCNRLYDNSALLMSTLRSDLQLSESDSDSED

B1: T-wt (T-box ACTTTA) (dsDNA)
DNA 1: GTCTGTCTGGATCCGAGGTGAGTACTGACTTTACACACGTCTTCCGAAGCTTACGTCGCG
DNA 2: CGCGACGTAAGCTTCGGAAGACGTGTGTAAAGTCAGTACTCACCTCGGATCCAGACAGAC
binding result [1]: binds

B2: T-mut (dsDNA)
DNA 1: B1 DNA 1 with T30G
DNA 2: B1 DNA 2 with A31C
binding result [2]: no binding
